Changes are numbered by the printed parent chain. Like-named read-outs stand apart in the source and are kept apart here.
T1: ORC1 full length (Homo sapiens, UniProt Q13415 1-861)
T1 sequence: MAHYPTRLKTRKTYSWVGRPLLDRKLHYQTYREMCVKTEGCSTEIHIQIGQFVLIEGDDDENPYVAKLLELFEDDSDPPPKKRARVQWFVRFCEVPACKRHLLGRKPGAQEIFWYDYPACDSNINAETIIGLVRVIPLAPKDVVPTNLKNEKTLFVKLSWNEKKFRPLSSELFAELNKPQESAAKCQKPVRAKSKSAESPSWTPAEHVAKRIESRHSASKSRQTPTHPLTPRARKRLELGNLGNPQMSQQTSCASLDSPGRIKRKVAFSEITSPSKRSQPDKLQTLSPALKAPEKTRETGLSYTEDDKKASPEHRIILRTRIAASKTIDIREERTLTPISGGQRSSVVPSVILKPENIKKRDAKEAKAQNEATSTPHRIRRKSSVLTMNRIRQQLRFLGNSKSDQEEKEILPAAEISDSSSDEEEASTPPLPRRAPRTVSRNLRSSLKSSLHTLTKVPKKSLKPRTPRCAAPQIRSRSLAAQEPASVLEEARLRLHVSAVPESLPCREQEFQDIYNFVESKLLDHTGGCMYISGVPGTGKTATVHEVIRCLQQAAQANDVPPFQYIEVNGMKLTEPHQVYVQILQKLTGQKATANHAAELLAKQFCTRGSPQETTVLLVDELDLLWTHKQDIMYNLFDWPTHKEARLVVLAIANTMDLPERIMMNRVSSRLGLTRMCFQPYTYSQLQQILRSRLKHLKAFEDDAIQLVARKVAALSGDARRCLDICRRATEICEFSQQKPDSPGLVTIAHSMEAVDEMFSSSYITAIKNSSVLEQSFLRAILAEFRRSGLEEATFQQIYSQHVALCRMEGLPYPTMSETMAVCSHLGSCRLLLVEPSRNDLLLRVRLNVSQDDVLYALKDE

T2: ORC1 WHD (Homo sapiens, UniProt Q13415 783-861)
T2 sequence: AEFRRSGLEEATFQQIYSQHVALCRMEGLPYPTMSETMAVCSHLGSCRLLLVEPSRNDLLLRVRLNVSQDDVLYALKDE

T3: ORC1 BAH domain (Homo sapiens, UniProt Q13415 1-200)
T3 sequence: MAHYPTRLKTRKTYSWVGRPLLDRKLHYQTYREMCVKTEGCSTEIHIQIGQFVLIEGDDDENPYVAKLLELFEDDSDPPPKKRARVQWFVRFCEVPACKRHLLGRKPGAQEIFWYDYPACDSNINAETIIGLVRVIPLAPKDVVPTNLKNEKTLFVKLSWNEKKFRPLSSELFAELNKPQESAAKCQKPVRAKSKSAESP

T4: ORC1 mutant (EYYE) (Homo sapiens, UniProt Q13415 1-861, R297E;S450Y;T593Y;R846E)
T4 sequence: T1 sequence with R297E, S450Y, T593Y, R846E


Assays:
Assay in all cases: EMSA
ORC1 full length [1] = target: T1, ORC1 full length
ORC1 full length [2] = target: T1, ORC1 full length; remark: listed apart in the source
ORC1 full length [3] = target: T1, ORC1 full length; remark: listed apart in the source
ORC1 WHD = target: T2, ORC1 WHD
ORC1 BAH domain = target: T3, ORC1 BAH domain
ORC1 mutant (EYYE) = target: T4, ORC1 mutant (EYYE)

Row | Binder | binding result (ORC1 full length [1]) | binding result (ORC1 full length [2]) | also measured
1 | GAUGGGAGGAAACGCUAAAGCCCAAGGUUUCAGAGGUGAU (ssRNA) [MYC3] | no binding |  | 
2 | GTACGCGCGTGGCGTGGCGGTGGGCGCGCAGTGCGTTCTC (ssDNA) [dRM9] |  | no binding | 
3 | CAGCCGCCCACUUUUGACAGGCCUGGGCGGGCUUCGCUUA (ssRNA) [MYC1, 32P] |  | no binding | 
4 | CAGCCGCCCACUUUUGACAGGCCUGGGCGGGCUUCGCUUA (ssRNA) [MYC1, biotinylated] |  |  | binding result (ORC1 full length [3]): no binding
5 | GAGCUCCCAAAUCUCUCCAGAUCUGCUAUCUCUCCUUCCU (ssRNA) [MYC2] | no binding |  | 
6 | GAGAACGCACUGCGCGCCCACCGCCACGCCACGCGCGUAC (ssRNA) [RM9, biotinylated] |  |  | binding result (ORC1 WHD): no binding; binding result (ORC1 BAH domain): no binding; binding result (ORC1 mutant (EYYE)): no binding

— paper PMC13500710
